B1: GST-fused PR-B fragment AF1 (401-546 aa) (domain or fragment, human, UniProt P06401 401-546, looked up)
chain: PRSYLVAGANPAAFPDFPLGPPPPLPPRATPSRPGEAAVTAAPASASVSSASSSGSTLECILYKAEGAPPQQGPFAPPPCKAPGASGCLLPRDGLPSTSASAAAAGAAPALYPALGLNGLPQLGYQAAVLKEGLPQVYPPYLNYLR
B2: GST-fused PR-B fragment AF3 (1-170 aa) (domain or fragment, human, UniProt P06401 1-170, looked up)
chain: MTELKAKGPRAPHVAGGPPSPEVGSPLLCRPAAGPFPGSQTSDTLPEVSAIPISLDGLLFPRPCQGQDPSDEKTQDQQSLSDVEGAYSRAEATRGAGGSSSSPPEKDSGLLDSVLDTLLAPSGPGQSQPSPPACEVTSSWCLFGPELPEDPPAAPATQRVLSPLMSRSGC
B3: full-length human steroid receptor coactivator-2 (natural protein)
chain: not shown
B4: full-length human progesterone receptor-B (receptor, UniProt P06401 1-933, looked up)
chain: MTELKAKGPRAPHVAGGPPSPEVGSPLLCRPAAGPFPGSQTSDTLPEVSAIPISLDGLLFPRPCQGQDPSDEKTQDQQSLSDVEGAYSRAEATRGAGGSSSSPPEKDSGLLDSVLDTLLAPSGPGQSQPSPPACEVTSSWCLFGPELPEDPPAAPATQRVLSPLMSRSGCKVGDSSGTAAAHKVLPRGLSPARQLLLPASESPHWSGAPVKPSPQAAAVEVEEEDGSESEESAGPLLKGKPRALGGAAAGGGAAAVPPGAAAGGVALVPKEDSRFSAPRVALVEQDAPMAPGRSPLATTVMDFIHVPILPLNHALLAARTRQLLEDESYDGGAGAASAFAPPRSSPCASSTPVAVGDFPDCAYPPDAEPKDDAYPLYSDFQPPALKIKEEEEGAEASARSPRSYLVAGANPAAFPDFPLGPPPPLPPRATPSRPGEAAVTAAPASASVSSASSSGSTLECILYKAEGAPPQQGPFAPPPCKAPGASGCLLPRDGLPSTSASAAAAGAAPALYPALGLNGLPQLGYQAAVLKEGLPQVYPPYLNYLRPDSEASQSPQYSFESLPQKICLICGDEASGCHYGVLTCGSCKVFFKRAMEGQHNYLCAGRNDCIVDKIRRKNCPACRLRKCCQAGMVLGGRKFKKFNKVRVVRALDAVALPQPVGVPNESQALSQRFTFSPGQDIQLIPPLINLLMSIEPDVIYAGHDNTKPDTSSSLLTSLNQLGERQLLSVVKWSKSLPGFRNLHIDDQITLIQYSWMSLMVFGLGWRSYKHVSGQMLYFAPDLILNEQRMKESSFYSLCLTMWQIPQEFVKLQVSQEEFLCMKVLLLLNTIPLEGLRSQTQFEEMRSSYIRELIKAIGLRQKGVVSSSQRFYQLTKLLDNLHDLVKQLHLYCLNTFIQSRALSVEFPEMMSEVIAAQLPKILAGMVKPLLFHKK
B5: GST-fused PR-B fragment LBD (688-933 aa, which contains the AF2) (domain or fragment, human, UniProt P06401 688-933, looked up)
chain: INLLMSIEPDVIYAGHDNTKPDTSSSLLTSLNQLGERQLLSVVKWSKSLPGFRNLHIDDQITLIQYSWMSLMVFGLGWRSYKHVSGQMLYFAPDLILNEQRMKESSFYSLCLTMWQIPQEFVKLQVSQEEFLCMKVLLLLNTIPLEGLRSQTQFEEMRSSYIRELIKAIGLRQKGVVSSSQRFYQLTKLLDNLHDLVKQLHLYCLNTFIQSRALSVEFPEMMSEVIAAQLPKILAGMVKPLLFHKK

Data set [1] deals with B3. The data set can be described thus: pull-down.
Data set [2] concerns the target T1, full-length human p300 (human, UniProt Q09472 1-2414). In words: pull-down.
Data set [3] concerns the target T1, full-length human p300. The data set can be described thus: cryo-EM structure.
The data set “cryo-EM structure” concerns the molecule itself. In words: cryo-EM structure.
The target of data set [4] is B3. In words: cryo-EM structure.

T1 sequence (Q09472 whole entry): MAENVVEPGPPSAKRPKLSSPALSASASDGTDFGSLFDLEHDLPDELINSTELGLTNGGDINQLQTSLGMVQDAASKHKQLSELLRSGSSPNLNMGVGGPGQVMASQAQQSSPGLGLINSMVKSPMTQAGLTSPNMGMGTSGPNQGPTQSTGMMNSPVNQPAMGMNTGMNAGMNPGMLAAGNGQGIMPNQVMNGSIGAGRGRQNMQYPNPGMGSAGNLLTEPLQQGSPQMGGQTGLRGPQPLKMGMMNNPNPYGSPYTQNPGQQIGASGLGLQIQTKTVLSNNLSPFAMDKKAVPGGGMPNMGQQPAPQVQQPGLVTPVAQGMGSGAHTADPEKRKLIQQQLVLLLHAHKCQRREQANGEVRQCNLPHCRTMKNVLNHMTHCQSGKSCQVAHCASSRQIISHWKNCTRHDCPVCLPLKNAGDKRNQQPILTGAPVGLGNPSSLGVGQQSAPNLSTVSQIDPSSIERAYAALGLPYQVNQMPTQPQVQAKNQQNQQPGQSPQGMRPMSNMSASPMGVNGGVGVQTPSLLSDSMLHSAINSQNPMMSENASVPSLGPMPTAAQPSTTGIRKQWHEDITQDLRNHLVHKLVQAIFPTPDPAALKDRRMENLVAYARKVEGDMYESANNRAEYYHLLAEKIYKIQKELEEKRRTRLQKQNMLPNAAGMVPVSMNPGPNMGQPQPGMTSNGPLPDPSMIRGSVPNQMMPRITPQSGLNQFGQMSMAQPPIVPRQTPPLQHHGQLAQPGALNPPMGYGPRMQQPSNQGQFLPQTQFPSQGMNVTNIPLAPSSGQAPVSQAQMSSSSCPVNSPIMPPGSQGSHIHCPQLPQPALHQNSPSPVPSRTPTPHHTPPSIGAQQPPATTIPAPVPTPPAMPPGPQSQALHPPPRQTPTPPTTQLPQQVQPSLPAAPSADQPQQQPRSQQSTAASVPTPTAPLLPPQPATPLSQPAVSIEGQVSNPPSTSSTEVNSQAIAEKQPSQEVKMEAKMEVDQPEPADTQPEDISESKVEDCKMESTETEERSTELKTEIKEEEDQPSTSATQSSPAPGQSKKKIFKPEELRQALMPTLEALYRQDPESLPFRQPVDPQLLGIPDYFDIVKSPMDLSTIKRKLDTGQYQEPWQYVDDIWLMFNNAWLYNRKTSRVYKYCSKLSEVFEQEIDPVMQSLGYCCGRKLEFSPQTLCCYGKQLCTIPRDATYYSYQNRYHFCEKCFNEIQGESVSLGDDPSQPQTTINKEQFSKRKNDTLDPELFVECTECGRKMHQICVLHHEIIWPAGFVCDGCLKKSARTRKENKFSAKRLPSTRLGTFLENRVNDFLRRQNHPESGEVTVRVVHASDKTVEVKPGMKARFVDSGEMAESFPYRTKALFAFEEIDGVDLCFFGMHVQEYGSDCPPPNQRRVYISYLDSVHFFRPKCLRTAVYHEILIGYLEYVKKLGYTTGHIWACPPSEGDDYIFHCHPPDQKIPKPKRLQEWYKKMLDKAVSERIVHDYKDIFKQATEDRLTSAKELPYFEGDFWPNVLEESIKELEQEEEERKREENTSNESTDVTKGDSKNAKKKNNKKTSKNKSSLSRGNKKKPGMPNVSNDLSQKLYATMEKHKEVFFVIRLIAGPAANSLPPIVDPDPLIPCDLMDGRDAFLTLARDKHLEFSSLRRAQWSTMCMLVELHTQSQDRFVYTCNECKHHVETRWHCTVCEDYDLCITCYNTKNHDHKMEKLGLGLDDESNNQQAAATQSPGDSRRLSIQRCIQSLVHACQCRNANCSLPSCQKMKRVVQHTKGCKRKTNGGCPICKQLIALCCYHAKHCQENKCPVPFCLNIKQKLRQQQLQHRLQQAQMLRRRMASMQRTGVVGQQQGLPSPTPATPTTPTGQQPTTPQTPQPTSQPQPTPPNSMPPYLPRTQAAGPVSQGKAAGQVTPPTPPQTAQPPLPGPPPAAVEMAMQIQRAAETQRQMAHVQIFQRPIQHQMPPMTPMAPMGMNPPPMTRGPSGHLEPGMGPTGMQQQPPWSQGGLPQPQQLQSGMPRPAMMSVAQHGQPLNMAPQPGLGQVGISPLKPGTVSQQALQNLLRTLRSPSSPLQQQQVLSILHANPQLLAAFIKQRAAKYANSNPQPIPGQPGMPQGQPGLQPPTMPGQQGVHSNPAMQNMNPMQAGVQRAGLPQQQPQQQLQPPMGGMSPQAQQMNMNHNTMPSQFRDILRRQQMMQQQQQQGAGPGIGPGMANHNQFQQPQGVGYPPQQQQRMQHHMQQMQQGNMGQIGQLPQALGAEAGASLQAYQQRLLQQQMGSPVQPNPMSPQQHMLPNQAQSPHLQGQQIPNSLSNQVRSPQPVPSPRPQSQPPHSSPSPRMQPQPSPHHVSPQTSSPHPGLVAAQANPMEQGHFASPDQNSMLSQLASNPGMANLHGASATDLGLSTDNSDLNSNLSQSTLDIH

With B1, the binding result (in data set [1]; in the data set with full-length human p300 [2]) was “binds” in each case.
Consider B2, for which, in the data set with full-length human p300 [2], the binding result is “binds”.
In the case of B3, the binding result with full-length human p300 [3] is recorded as “binds”.
Turning to B4, the “stoichiometry N” value in the data set “cryo-EM structure” came out at 2. For the same molecule, the binding result (in data set [4]; with full-length human p300 [3]) was “binds” throughout.
Consider B5, for which the binding result in the data set with full-length human p300 [2] is reported as “binds”.

What is called stoichiometry N is a count of units in the complex or per binding partner.

For the origin of these results see PMC9618773 (iScience, 2022).
